According to PMC5389741:

Target: PGK1 (UniProt P00558)
Assay: GST pull-down with purified proteins
Conditions: reference: WT GST-ARD1 with mTOR; sites S228

binding against the reference: stronger
Substance: ARD1 (from UniProt P41227) GST-ARD1 S228A with mTOR
